Assay results: patent publication US20250313626A1 (HARBOUR BIOMED SHANGHAI, published 2025)

T1: human CD200R1a protein (soluble recombinant) (human, UniProt Q8TD46 29-265)
T1 construct: Soluble protein used in BLI; also called human CD200R1 isoform a; not shown: His tag implied by capture on anti-Penta-HIS biosensors
T1 sequence: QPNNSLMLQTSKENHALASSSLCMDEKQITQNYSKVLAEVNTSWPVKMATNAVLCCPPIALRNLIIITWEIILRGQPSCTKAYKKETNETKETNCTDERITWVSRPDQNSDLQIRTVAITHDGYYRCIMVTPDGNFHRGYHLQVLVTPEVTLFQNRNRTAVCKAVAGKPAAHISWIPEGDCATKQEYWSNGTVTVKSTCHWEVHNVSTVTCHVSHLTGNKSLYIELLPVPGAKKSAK

T2: human CD200R1 isoform a on CHOK1 cells (CHOK1/hCD200R1a) (human, UniProt Q8TD46 25-348)
T2 construct: also called CHOK1/CD200R1a
T2 sequence: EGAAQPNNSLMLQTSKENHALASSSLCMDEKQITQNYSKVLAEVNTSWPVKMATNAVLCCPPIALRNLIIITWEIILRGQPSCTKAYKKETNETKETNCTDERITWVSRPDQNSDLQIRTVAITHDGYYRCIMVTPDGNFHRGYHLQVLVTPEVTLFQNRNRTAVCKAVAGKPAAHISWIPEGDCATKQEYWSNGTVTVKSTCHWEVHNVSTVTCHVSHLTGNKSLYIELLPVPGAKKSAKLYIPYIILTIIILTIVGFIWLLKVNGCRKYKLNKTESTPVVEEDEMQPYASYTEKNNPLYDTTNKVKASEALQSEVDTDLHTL

T3: Mouse CD200R1-His (mouse, UniProt Q9ES57 26-238, limits assumed)
T3 sequence (looked up): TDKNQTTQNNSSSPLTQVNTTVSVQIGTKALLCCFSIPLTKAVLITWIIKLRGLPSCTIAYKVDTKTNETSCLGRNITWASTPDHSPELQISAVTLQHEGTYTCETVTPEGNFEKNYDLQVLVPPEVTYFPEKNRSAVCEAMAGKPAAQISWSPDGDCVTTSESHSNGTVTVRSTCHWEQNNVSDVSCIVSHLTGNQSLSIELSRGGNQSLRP

T4: Cyno CD200R1a-His (Cynomolgus macaques, UniProt Q8TD46 25-265 (human entry))
T4 construct: Soluble protein used in BLI; also called Cynomolgus macaques CD200R1a recombinant protein; not shown: His tag
T4 chain: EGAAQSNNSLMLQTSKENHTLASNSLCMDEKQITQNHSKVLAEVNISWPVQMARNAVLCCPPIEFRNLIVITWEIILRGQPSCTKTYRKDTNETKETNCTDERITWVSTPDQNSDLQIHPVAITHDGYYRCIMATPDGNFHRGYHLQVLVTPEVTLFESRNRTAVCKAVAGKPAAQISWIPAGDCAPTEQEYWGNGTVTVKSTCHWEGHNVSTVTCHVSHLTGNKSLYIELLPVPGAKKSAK


Key:
[1] = target: T1, human CD200R1a protein (soluble …); assay: BLI (Octet), antibody captured on anti-human Fc sensor, soluble CD200R1a as analyte, 1:1 fit
Procedure: (§1) To determine the binding affinities of the anti-CD200R1 antibodies to CD200R1a proteins of various species (mouse, human, Cynomolgus macaques), bio-layer interferometry (BLI) assays were carried out using an Octet® RED96e instrument. Antibodies were produced as described in Example 3.4 and diluted to 5 μg/mL using freshly prepared 1× kinetic buffer (10× kinetic buffer (Catalog #18-1105, ForteBio) was diluted with PBS(Catalog #E607016-0500, BBI Life Sciences)) and were captured on the surface of anti-human Fc (AHC) Octet biosensors (Catalog #18-5060, ForteBio) to reach capture levels between 0.9-1.2 nm. The biosensors having the captured anti-CD200R1 antibodies were then dipped in wells containing 2-fold serial dilutions of CD200R1a proteins to detect association signals, followed by dissociation steps in wells containing 1× kinetic buffer. The sensorgrams were recorded and the reference signals were subtracted before curve fitting using ForteBio Data Analysis 11.0 software. Association rates (kₒₙ) and dissociation rates (koff) were calculated using a simple one-to-one Langmuir binding model. The equilibrium dissociation constant (KD) was calculated as the ratio of koff/kₒₙ.

[2] = target: T2, human CD200R1 isoform a on CHOK1 cells …; assay: flow cytometry, CHOK1/hCD200R1a cells; table beside the curves, head without unit, x axis Log [Ab] (nM)
Procedure: This example is intended to investigate the in vitro binding activity of human anti-CD200R1 monoclonal antibodies to human/Cynomolgus macaques CD200R1a expressed on the surface of cells. The anti-CD200R1 antibodies were produced as described in Example 3.4 and the binding experiments at the cell level were performed using CHOK1/hCD200R1a and CHOK1-cynoCD200R1a.
Briefly, CHOK1/hCD200R1a cells and CHOK1-cynoCD200R1a cells were digested, and collected, and then were resuspended in PBS containing 2% BSA, respectively. The cell density was adjusted to 1×10⁶ cells/mL. The cells were seeded in a 96-well V-bottom plate (Corning, #3894) at 100 μL/well, followed by the addition of test antibodies and reference antibodies in a series diluted concentration, each at 100 μL/well. The cells were incubated away from light at 4° C. for 1 h. Thereafter, the cells in each well were rinsed twice with 100 μL of pre-cooled PBS containing 2% BSA, and centrifuged at 500 g at 4° C. for 5 min, and then the supernatant was discarded. 100 μL of fluorescent secondary antibody (Alexa Fluor 488-conjugated AffiniPure Goat Anti-Human IgG, Fcγ Fragment Specific, Jackson, #109-545-098, diluted in a 1:1000 ratio) was added in each well, and the plate was incubated away from light at 4° C. for 1 h. The cells in each well were rinsed twice with 100 μL of pre-cooled PBS containing 2% BSA, and centrifuged at 500 g at 4° C. for 5 min, and then the supernatant was discarded. Finally, the cells in each well were resuspended in 200 μL of pre-cooled PBS containing 2% BSA, and the fluorescence signal values were read using a BD CantoII flow cytometer.

[3] = target: T3, Mouse CD200R1-His; assay: BLI (Octet), antibody captured on anti-human Fc sensor
Procedure: as §1

[4] = target: T4, Cyno CD200R1a-His; assay: BLI (Octet), antibody captured on anti-human Fc sensor, soluble CD200R1a as analyte, 1:1 fit
Procedure: as §1

Binder	Kd [1]	koff [1]	kon [1]	EC50 [2]	binding result [3]	Kd [4]	koff [4]	kon [4]
PR002906 (antibody, V domains shown, also called recombinant IgG1 antibody of huDX182) VH: QVQLQESGPGLVKPSETLSLTCTVSGYTITSGYDWSWIRQPPGKGLEWIGYINYGGSTNYKPSLGSRVTISVDTSKNQFSLKLSSVTAADTAVYYCARYNEYKSYIYDWYFDFWGQGTLVTVSS VL: DIQMTQSPSSLSASVGDRVTITCKASKNIRSYLAWYQQKPGKAPKLLIYSGSTLHSGVPSRFSGSGSGTDFTLTISSLQPEDFATYYCQQHHEYPLTFGQGTKVEIKR	39.3 nM	0.00341 s⁻¹	86700 M⁻¹ s⁻¹	14.8 nM				
PR006480 (antibody, human IgG1, kappa, L234A L235A, also called PR6480) heavy: not shown light: DIQMTQSPPSLSASVGDRVTITCRASQSISSYLNWFQQKAGKAPKLLISATSNLQSGVPSRFSGSGSGTDFTLTISSLQPEDLATYYCQQSYSSPYTFGQGTKVEIKRTVAAPSVFIFPPSDEQLKSGTASVVCLLNNFYPREAKVQWKVDNALQSGNSQESVTEQDSKDSTYSLSSTLTLSKADYEKHKVYACEVTHQGLSSPVTKSFNRGEC	14.3 nM	0.000476 s⁻¹	33300 M⁻¹ s⁻¹	33 nM	no binding	104 nM	0.00713 s⁻¹	68500 M⁻¹ s⁻¹
PR007223 (antibody, human IgG1, kappa, PTM variant of PR006895 (human IgG1)) heavy: not shown light: DIQLTQSPPSLSASVGDRVTITCRASQSISSYLNWFQQKAGKAPKLLISATSNLQSGVPSRFSGSGSGTDFTLTISSLQPEDLATYYCQQTYSSPYTFGQGTKVEIKRTVAAPSVFIFPPSDEQLKSGTASVVCLLNNFYPREAKVQWKVDNALQSGNSQESVTEQDSKDSTYSLSSTLTLSKADYEKHKVYACEVTHQGLSSPVTKSFNRGEC	2.07 nM	0.000133 s⁻¹	64200 M⁻¹ s⁻¹		no binding	16.3 nM	0.0014 s⁻¹	86000 M⁻¹ s⁻¹
PR007221 (antibody, human IgG1, kappa, PTM variant of PR006895 (human IgG1)) heavy: not shown light: DIQLTQSPPSLSASVGDRVTITCRASQSISSYLNWFQQKAGKAPKLLISATSNLQSGVPSRFSGSGSGTDFTLTISSLQPEDLATYYCQQTLSSPYTFGQGTKVEIKRTVAAPSVFIFPPSDEQLKSGTASVVCLLNNFYPREAKVQWKVDNALQSGNSQESVTEQDSKDSTYSLSSTLTLSKADYEKHKVYACEVTHQGLSSPVTKSFNRGEC	4.34 nM	0.000211 s⁻¹	48600 M⁻¹ s⁻¹		no binding	12.5 nM	0.000776 s⁻¹	62100 M⁻¹ s⁻¹
PR005509 (antibody, human IgG1, kappa, L234A L235A, V domains shown) VH: QVQLVESGGGVVQPGRSLRLSCAASGFTFSSYGFHWVRQAPGKGLEWLGLIWSDGSNKYYADSVKGRFTISRDNSKNTLYLQMNSLRAEDTAVYYCARDRIVGAGFDYWGQGTLVTVSS VL: not shown	7.74 nM	0.000511 s⁻¹	66100 M⁻¹ s⁻¹		no binding	146 nM	0.0275 s⁻¹	189000 M⁻¹ s⁻¹
PR005474 (antibody, human IgG1, kappa, L234A L235A, V domains shown) VH: QVQLVESGGGVVQPGRSLRLSCAASAFTFSSYGMHWVRQAPGKGLEWVALIWNDGSNKFYADSVKGRFTISRDNSKNTLFLQMNSLRAEDTAVYYCARDRILGAGFDYWGQGTLVTVSS VL: not shown	16.6 nM	0.00101 s⁻¹	60700 M⁻¹ s⁻¹	9.36 nM	no binding	147 nM	0.0287 s⁻¹	196000 M⁻¹ s⁻¹
PR007973 (antibody, human IgG1, kappa, V domains shown, PTM variant of PR006839 (human IgG1)) VH: QVQLVESGGGVVQPGRSLRLSCAASGFTFSSYGFHWVRQAPGKGLEWLGIIWSDASNKYYADSVKGRFTISRDNSKNTLYLQMNSLRAEDTAVYYCARDRIVGEGFDYWGQGTLVTVSS VL: not shown	1.06 nM	5.97e-05 s⁻¹	56200 M⁻¹ s⁻¹		no binding	10.2 nM	0.000151 s⁻¹	14900 M⁻¹ s⁻¹
